In the supplement of paper PMC9170038:

Tested on: MS2 coat protein
Test: apparent KD of MS2 coat protein; higher = weaker reporter binding
Conditions: Eterna round: R107
How it was run: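 Apparent KD per design is the median of normalised cluster binding-curve fits. Designed RNA switches transcribed on-chip from Illumina sequencing clusters were titrated with SNAP-549-labelled MS2 coat protein in twofold steps from 0.7 or 1.5 nM to 3 µM, with 0.8–1.5 h down to 10–20 min per step. Buffer: 100 mM Tris-HCl pH 7.5, 80 mM KCl, 4 mM MgCl2, without or with constant ligand.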

[1] = input ligand: theophylline 20 uM
[2] = input ligand: theophylline 2 mM
[3] = input ligand: tryptophan 2.4 mM

Sequence: UCGCUCUGGGUGAAUCCCGGAGAUGUGGAAGGAGCGGACGAAAGUCCAGGUAGGUCGCCAUCGAACAUGAGGAUCACCCAUGUAC [Same State - Arginine A (Freestyle 25)]
- apparent KD of MS2 coat protein (input ligand: arginine 13.2 mM): 13.3 nM
- apparent KD of MS2 coat protein (input ligand: none): 88.8 nM
- apparent KD of MS2 coat protein [1]: 338 nM
- apparent KD of MS2 coat protein [2]: 60.5 nM
- apparent KD of MS2 coat protein [3]: 21.8 nM

Sequence: UCGGGCAGAGCGGCCGCCACUGUUUGGCAUGCGGAUGAAGGAACAUGAGGAUCACCCAUGUAGAUUAGGACCGGGCUUUCGGAGA [cctchmullin]
- apparent KD of MS2 coat protein (input ligand: arginine 13.2 mM): 19.3 nM
- apparent KD of MS2 coat protein (input ligand: none): 21.4 nM
- apparent KD of MS2 coat protein [1]: 32.8 nM
- apparent KD of MS2 coat protein [2]: 25.5 nM
- apparent KD of MS2 coat protein [3]: 22.2 nM

Sequence: UCGUGUAAAACGGAUACCAGUGAGAAGGAUACAUGAGGAUCACCCAUGUGAGUUGAUCCACACCCUUGGCAGCUGUAUAUAUCUA [ozomullin]
- apparent KD of MS2 coat protein (input ligand: arginine 13.2 mM): 105 nM
- apparent KD of MS2 coat protein [1]: 185 nM
- apparent KD of MS2 coat protein [3]: 122 nM

Sequence: UCGUUUUAGUCGGCCGCCACUGAACUCAUGUUCAACAUGAGGAUCACCCAUGUACCUUAUUUUAACAGGACCGGGACGUAAUAGA [JR_ExcTryptoB_Sub001]
- apparent KD of MS2 coat protein (input ligand: arginine 13.2 mM): 165 nM
- apparent KD of MS2 coat protein [1]: 264 nM
- apparent KD of MS2 coat protein [2]: 258 nM

Sequence: UCUCACAUGAGGAUCACCCAUGUUAAGGCCCGAGGACCGGUACGGCCGCCACUCGUUGGAAGCCGGUAACGUACGAAUCUUCCGU [theeternabot_sameState_MS2_Trp_A_18]
- apparent KD of MS2 coat protein (input ligand: arginine 13.2 mM): 16.2 nM
- apparent KD of MS2 coat protein [1]: 26.9 nM
- apparent KD of MS2 coat protein [2]: 22.9 nM

Sequence: UCUUUCUAUAGUGAUACCAGACGUACAUGAGGAUCACCCAUGUUACAUUCUUGGUUAAAAGUCCCUUGGCAGCACGAUUUGUUCG [JR_Nu_ExcTheophyB_Sub027]
- apparent KD of MS2 coat protein (input ligand: arginine 13.2 mM): 9.7 nM
- apparent KD of MS2 coat protein [1]: 10.9 nM
- apparent KD of MS2 coat protein [3]: 10.3 nM

Sequence: UCUUUCUAUGUAGAUACCAGCAUGUUAUAUUUCUAAUGACAUGAGGAUCACCCAUGUAAAUGCCCUUGGCAGCUGCGUUUUCUUU [SSTHB #5]
- apparent KD of MS2 coat protein (input ligand: arginine 13.2 mM): 14.2 nM
- apparent KD of MS2 coat protein [1]: 20.2 nM
- apparent KD of MS2 coat protein [3]: 15.2 nM

Sequence: UGACAUUGCUCAGAUACCAGACAUGAGCAUCAGCCAUGUGCCAACAAGUACAUAAUAAAAGUCCCUUGGCAGCUGAGCAAUGUCU [TheoBX 20 #MS2Left #AlternativeMS2 #Theo2]
- apparent KD of MS2 coat protein (input ligand: arginine 13.2 mM): 13.2 nM
- apparent KD of MS2 coat protein (input ligand: none): 11.3 nM
- apparent KD of MS2 coat protein [1]: 16.2 nM
- apparent KD of MS2 coat protein [2]: 68.4 nM
- apparent KD of MS2 coat protein [3]: 11.3 nM

Sequence: UGACAUUGCUCAGAUACCAGACAUGAGGAUCACCCAUGUACCAAGGUAACCGAAAGGCAUGUCCCUUGGCAGCUGAGCAAUGUCU [TheoBX 2 #MS2Left #Theo2 #StaticStem]
- apparent KD of MS2 coat protein (input ligand: arginine 13.2 mM): 13 nM
- apparent KD of MS2 coat protein [1]: 18.9 nM
- apparent KD of MS2 coat protein [3]: 11.9 nM

Sequence: UGACAUUGCUCAGAUACCAGACAUGAGGAUCACCCAUGUACCAAGGUAAGAAAAUAACAUGUCCCUUGGCAGCUGAGCAAUGUCU [First try #MS2Left #Theo2]
- apparent KD of MS2 coat protein (input ligand: arginine 13.2 mM): 16.4 nM
- apparent KD of MS2 coat protein [1]: 38.4 nM
- apparent KD of MS2 coat protein [3]: 14.6 nM

Sequence: UGACAUUGCUCAGAUACCAGACUUGAGGAACACCCAAGUGCCAACAAGUAUAUAAUAAAAGUCCCUUGGCAGCUGAGCAAUGUCU [TheoBX 19 #MS2Left #AlternativeMS2 #Theo2]
- apparent KD of MS2 coat protein (input ligand: arginine 13.2 mM): 42.8 nM
- apparent KD of MS2 coat protein (input ligand: none): 47.8 nM
- apparent KD of MS2 coat protein [1]: 105 nM
- apparent KD of MS2 coat protein [2]: 318 nM
- apparent KD of MS2 coat protein [3]: 45.3 nM

Sequence: UGACAUUGCUCAGAUACCAGACUUGAGGAUCACCCAAGUGCCAACAAGUAUAUAAUAAAAGUCCCUUGGCAGCUGAGCAAUGUCU [TheoBX 18#MS2Left #AlternativeMS2 #Theo2]
- apparent KD of MS2 coat protein (input ligand: arginine 13.2 mM): 42.7 nM
- apparent KD of MS2 coat protein (input ligand: none): 28 nM
- apparent KD of MS2 coat protein [1]: 28.6 nM
- apparent KD of MS2 coat protein [2]: 137 nM
- apparent KD of MS2 coat protein [3]: 17.5 nM

Sequence: UGACAUUGCUGCGAUACCAGACAUGAGGAUCACCCAUGUACCAAGGUAAAGAAAUAACGUGUCCCUUGGCAGCGCAGCAAUGUCU [MAT - Exclusion Theophlline B - Mod of Eli - D8]
- apparent KD of MS2 coat protein (input ligand: arginine 13.2 mM): 11.5 nM
- apparent KD of MS2 coat protein [1]: 13.9 nM
- apparent KD of MS2 coat protein [3]: 10.1 nM

Sequence: UGACCCUUCACGGCCGCCACUCAUUUUAAGUAGAGAGAGUACAUGAGGAUCACCCAUGUGAGAGAGAGGACCGGGUGAGAUGUUG [ss-trypB-0(N)]
- apparent KD of MS2 coat protein (input ligand: arginine 13.2 mM): 15.5 nM
- apparent KD of MS2 coat protein (input ligand: none): 16.3 nM
- apparent KD of MS2 coat protein [1]: 30.8 nM
- apparent KD of MS2 coat protein [2]: 16.8 nM
- apparent KD of MS2 coat protein [3]: 15.4 nM

Sequence: UGAGUUAGACAAAAGUCUAGCUCUGGUGAAGGAGCGUCCGAAAGGACAGGUAGGUCGCACCACAUGAGGAUCACCCAUGUUCCUU [ArgAS 10 #OpenEnded]
- apparent KD of MS2 coat protein (input ligand: arginine 13.2 mM): 112 nM
- apparent KD of MS2 coat protein (input ligand: none): 227 nM
- apparent KD of MS2 coat protein [1]: 192 nM
- apparent KD of MS2 coat protein [2]: 323 nM
- apparent KD of MS2 coat protein [3]: 216 nM

Sequence: UGAGUUAGACAAAAGUCUAGCUCUGGUGAAGGAGCGUCCGAAAGGACAGGUAGGUCGCACCACCUGAGGAUCACCCAGGUUCCUA [ArgAS 14 #OpenEnded #AlternativeMS2]
- apparent KD of MS2 coat protein (input ligand: arginine 13.2 mM): 28.5 nM
- apparent KD of MS2 coat protein (input ligand: none): 42.1 nM
- apparent KD of MS2 coat protein [1]: 29.8 nM
- apparent KD of MS2 coat protein [2]: 57.2 nM
- apparent KD of MS2 coat protein [3]: 38.9 nM

Sequence: UGAUAUAUGCGAAGGAGCGGGAAAUAUAUAUAUAUAAUCCUAACAUGAGGAUCACCCAUGUCCCAGGUAGGUCGCGCAUAUAUUG [12.D]
- apparent KD of MS2 coat protein (input ligand: arginine 13.2 mM): 58.7 nM
- apparent KD of MS2 coat protein (input ligand: none): 64.8 nM
- apparent KD of MS2 coat protein [1]: 78.5 nM
- apparent KD of MS2 coat protein [2]: 77.1 nM
- apparent KD of MS2 coat protein [3]: 59.7 nM

Sequence: UGAUCCUACAGAGAUACCAGUGCCACUAAAUAACUAAACACAUGAGGAUCACCCAUGUAACACCCUUGGCAGCUCAACUAAAGGG [Same State Theophylline B GF16]
- apparent KD of MS2 coat protein (input ligand: arginine 13.2 mM): 19.7 nM
- apparent KD of MS2 coat protein [1]: 25.5 nM
- apparent KD of MS2 coat protein [3]: 26.8 nM

Sequence: UGAUCCUACAGAGAUACCAGUGCCACUGAGUGACCAGACACAUGAGGAUCACCCAUGUAACACCCUUGGCAGCUCAACUAAAGGG [Same State Theophylline B GF17]
- apparent KD of MS2 coat protein (input ligand: arginine 13.2 mM): 16.2 nM
- apparent KD of MS2 coat protein [1]: 20.5 nM
- apparent KD of MS2 coat protein [3]: 21.4 nM
